Test results from patent US20240018502A1.

Biological target: plasma purified human complement protein C3 (human) (UniProt P01024)
Assay: cell-based or functional assay

Chain of plasma purified human complement protein C3 (human) (P01024 23-667, chain 1 of 2): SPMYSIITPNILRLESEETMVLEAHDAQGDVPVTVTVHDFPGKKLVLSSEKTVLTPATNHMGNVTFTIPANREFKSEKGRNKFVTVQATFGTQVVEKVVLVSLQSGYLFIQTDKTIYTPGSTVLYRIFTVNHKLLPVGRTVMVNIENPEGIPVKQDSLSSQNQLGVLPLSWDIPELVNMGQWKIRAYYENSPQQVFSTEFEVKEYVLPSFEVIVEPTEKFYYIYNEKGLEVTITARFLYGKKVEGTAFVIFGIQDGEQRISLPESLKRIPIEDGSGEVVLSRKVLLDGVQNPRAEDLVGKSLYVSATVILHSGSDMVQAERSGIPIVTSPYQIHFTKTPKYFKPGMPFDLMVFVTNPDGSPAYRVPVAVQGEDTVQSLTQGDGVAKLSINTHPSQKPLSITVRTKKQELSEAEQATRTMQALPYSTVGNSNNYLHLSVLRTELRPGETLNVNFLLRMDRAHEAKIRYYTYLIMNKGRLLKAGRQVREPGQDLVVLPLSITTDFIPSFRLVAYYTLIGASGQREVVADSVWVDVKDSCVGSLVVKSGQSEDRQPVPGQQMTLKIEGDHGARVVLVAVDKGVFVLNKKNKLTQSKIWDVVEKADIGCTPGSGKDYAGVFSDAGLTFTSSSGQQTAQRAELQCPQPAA
Chain of plasma purified human complement protein C3 (human) (P01024 672-1663, chain 2 of 2): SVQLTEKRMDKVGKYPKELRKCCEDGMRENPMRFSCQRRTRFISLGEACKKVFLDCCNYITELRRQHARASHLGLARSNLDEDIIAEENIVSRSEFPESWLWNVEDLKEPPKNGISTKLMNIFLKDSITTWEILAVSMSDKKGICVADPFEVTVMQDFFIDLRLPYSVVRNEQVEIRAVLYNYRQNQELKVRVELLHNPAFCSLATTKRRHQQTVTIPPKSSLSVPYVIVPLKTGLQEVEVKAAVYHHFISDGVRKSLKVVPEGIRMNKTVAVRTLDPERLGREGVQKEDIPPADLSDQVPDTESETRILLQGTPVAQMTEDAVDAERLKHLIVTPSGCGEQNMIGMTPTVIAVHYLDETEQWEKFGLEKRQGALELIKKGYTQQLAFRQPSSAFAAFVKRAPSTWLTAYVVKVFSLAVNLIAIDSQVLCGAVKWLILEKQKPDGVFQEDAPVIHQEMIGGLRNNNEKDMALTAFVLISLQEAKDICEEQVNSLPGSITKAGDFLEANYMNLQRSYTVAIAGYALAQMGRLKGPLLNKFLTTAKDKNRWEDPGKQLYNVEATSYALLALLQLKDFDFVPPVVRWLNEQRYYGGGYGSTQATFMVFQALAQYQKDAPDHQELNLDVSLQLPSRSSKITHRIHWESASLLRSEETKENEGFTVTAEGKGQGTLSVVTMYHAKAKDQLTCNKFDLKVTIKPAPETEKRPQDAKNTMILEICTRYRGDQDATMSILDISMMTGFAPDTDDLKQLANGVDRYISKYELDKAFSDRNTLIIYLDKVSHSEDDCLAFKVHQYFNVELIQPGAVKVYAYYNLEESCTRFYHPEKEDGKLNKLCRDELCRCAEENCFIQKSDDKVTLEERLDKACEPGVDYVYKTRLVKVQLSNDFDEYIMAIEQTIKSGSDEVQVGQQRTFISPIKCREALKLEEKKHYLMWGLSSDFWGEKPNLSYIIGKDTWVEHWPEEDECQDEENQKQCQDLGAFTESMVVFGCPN

Row | Binder | EC50 of hC3 cleavage
1 | MTSP-1 H40R/I41H/F97D/ins97aV/T98P/F99L/C122S/Q175R/Q192G/D217E/K224R (enzyme) VVGGTDADEGEWPWQVSLHALGQGRHCGASLISPNWLVSAAHCYIDDRGFRYSDPTQWTAFLGLHDQSQRSAPGVQERRLKRIISHPFFNDDVPLDYDIALLELEKPAEYSSMVRPISLPDASHVFPAGKAIWVTGWGHTQYGGTGALILQKGEIRVINQTTCENLLPQRITPRMMCVGFLSGGVDSCGGDSGGPLSSVEADGRIFQAGVVSWGEGCAQRNRPGVYTRLPLFRDWIKENTGV | 65.8 nM
2 | MTSP-1 Q38E/I41S/D60bV/F60eK/F97T/ins97aE/T98G/F99L/C122S/Q175L/Q192I (enzyme) VVGGTDADEGEWPWQVSLHALGEGHSCGASLISPNWLVSAAHCYIDVRGKRYSDPTQWTAFLGLHDQSQRSAPGVQERRLKRIISHPFFNDTEGLDYDIALLELEKPAEYSSMVRPISLPDASHVFPAGKAIWVTGWGHTQYGGTGALILQKGEIRVINQTTCENLLPQLITPRMMCVGFLSGGVDSCIGDSGGPLSSVEADGRIFQAGVVSWGDGCAQRNKPGVYTRLPLFRDWIKENTGV | 20.4 nM
3 | MTSP-1 Q38H/I41A/D60bA/F60eR/F97T/ins97aE/T98G/F99L/C122S/Q175L/Q192E (enzyme) VVGGTDADEGEWPWQVSLHALGHGHACGASLISPNWLVSAAHCYIDARGRRYSDPTQWTAFLGLHDQSQRSAPGVQERRLKRIISHPFFNDTEGLDYDIALLELEKPAEYSSMVRPISLPDASHVFPAGKAIWVTGWGHTQYGGTGALILQKGEIRVINQTTCENLLPQLITPRMMCVGFLSGGVDSCEGDSGGPLSSVEADGRIFQAGVVSWGDGCAQRNKPGVYTRLPLFRDWIKENTGV | 12 nM
4 | MTSP-1 F97D/ins97aV/T98P/F99L/C122S/G151N/Q175L/Q192E (enzyme) VVGGTDADEGEWPWQVSLHALGQGHICGASLISPNWLVSAAHCYIDDRGFRYSDPTQWTAFLGLHDQSQRSAPGVQERRLKRIISHPFFNDDVPLDYDIALLELEKPAEYSSMVRPISLPDASHVFPAGKAIWVTGWGHTQYGGTNALILQKGEIRVINQTTCENLLPQLITPRMMCVGFLSGGVDSCEGDSGGPLSSVEADGRIFQAGVVSWGDGCAQRNKPGVYTRLPLFRDWIKENTGV | 194 nM
5 | MTSP-1 I41D/ins97aE/F97T/T98G/F99L/C122S/G151N/Q175L/Q192E/Q209L (enzyme) VVGGTDADEGEWPWQVSLHALGQGHDCGASLISPNWLVSAAHCYIDDRGFRYSDPTQWTAFLGLHDQSQRSAPGVQERRLKRIISHPFFNDTEGLDYDIALLELEKPAEYSSMVRPISLPDASHVFPAGKAIWVTGWGHTQYGGTNALILQKGEIRVINQTTCENLLPQLITPRMMCVGFLSGGVDSCEGDSGGPLSSVEADGRIFLAGVVSWGDGCAQRNKPGVYTRLPLFRDWIKENTGV | 103 nM
6 | MTSP-1 Q38E/I41S/D60bH/F60eI/F97T/ins97aE/T98G/F99L/C122S/Q175L/Q192V (enzyme) VVGGTDADEGEWPWQVSLHALGEGHSCGASLISPNWLVSAAHCYIDHRGIRYSDPTQWTAFLGLHDQSQRSAPGVQERRLKRIISHPFFNDTEGLDYDIALLELEKPAEYSSMVRPISLPDASHVFPAGKAIWVTGWGHTQYGGTGALILQKGEIRVINQTTCENLLPQLITPRMMCVGFLSGGVDSCVGDSGGPLSSVEADGRIFQAGVVSWGDGCAQRNKPGVYTRLPLFRDWIKENTGV | 10.4 nM
7 | MTSP-1 Q38E/H40R/I41H/D60bN/F97D/F99L/C122S/Q192G (enzyme) VVGGTDADEGEWPWQVSLHALGEGRHCGASLISPNWLVSAAHCYIDNRGFRYSDPTQWTAFLGLHDQSQRSAPGVQERRLKRIISHPFFNDDTLDYDIALLELEKPAEYSSMVRPISLPDASHVFPAGKAIWVTGWGHTQYGGTGALILQKGEIRVINQTTCENLLPQQITPRMMCVGFLSGGVDSCGGDSGGPLSSVEADGRIFQAGVVSWGDGCAQRNKPGVYTRLPLFRDWIKENTGV | 39.5 nM
8 | MTSP-1 Q38E/H40R/I41H/D60bK/F97D/F99L/C122S/Q175L/Q192G (enzyme) VVGGTDADEGEWPWQVSLHALGEGRHCGASLISPNWLVSAAHCYIDKRGFRYSDPTQWTAFLGLHDQSQRSAPGVQERRLKRIISHPFFNDDTLDYDIALLELEKPAEYSSMVRPISLPDASHVFPAGKAIWVTGWGHTQYGGTGALILQKGEIRVINQTTCENLLPQLITPRMMCVGFLSGGVDSCGGDSGGPLSSVEADGRIFQAGVVSWGDGCAQRNKPGVYTRLPLFRDWIKENTGV | 15.3 nM
9 | MTSP-1 Q38E/H40R/I41H/D60bK/F60eT/F97D/F99L/C122S/Q175L/Q192G (enzyme) VVGGTDADEGEWPWQVSLHALGEGRHCGASLISPNWLVSAAHCYIDKRGTRYSDPTQWTAFLGLHDQSQRSAPGVQERRLKRIISHPFFNDDTLDYDIALLELEKPAEYSSMVRPISLPDASHVFPAGKAIWVTGWGHTQYGGTGALILQKGEIRVINQTTCENLLPQLITPRMMCVGFLSGGVDSCGGDSGGPLSSVEADGRIFQAGVVSWGDGCAQRNKPGVYTRLPLFRDWIKENTGV | 16.6 nM
10 | MTSP-1 Q38G/H40R/I41H/D60bK/F97D/F99L/C122S/Q175L/Q192G (enzyme) VVGGTDADEGEWPWQVSLHALGGGRHCGASLISPNWLVSAAHCYIDKRGFRYSDPTQWTAFLGLHDQSQRSAPGVQERRLKRIISHPFFNDDTLDYDIALLELEKPAEYSSMVRPISLPDASHVFPAGKAIWVTGWGHTQYGGTGALILQKGEIRVINQTTCENLLPQLITPRMMCVGFLSGGVDSCGGDSGGPLSSVEADGRIFQAGVVSWGDGCAQRNKPGVYTRLPLFRDWIKENTGV | 20.6 nM
11 | MTSP-1 Q38G/H40R/I41H/D60bK/F60eT/F97D/F99L/C122S/Q175L/Q192G (enzyme) VVGGTDADEGEWPWQVSLHALGGGRHCGASLISPNWLVSAAHCYIDKRGTRYSDPTQWTAFLGLHDQSQRSAPGVQERRLKRIISHPFFNDDTLDYDIALLELEKPAEYSSMVRPISLPDASHVFPAGKAIWVTGWGHTQYGGTGALILQKGEIRVINQTTCENLLPQLITPRMMCVGFLSGGVDSCGGDSGGPLSSVEADGRIFQAGVVSWGDGCAQRNKPGVYTRLPLFRDWIKENTGV | 21.3 nM
12 | MTSP-1 Q38G/H40R/I41H/D60bN/F60eT/F97D/F99L/C122S/Q175L/Q192G (enzyme) VVGGTDADEGEWPWQVSLHALGGGRHCGASLISPNWLVSAAHCYIDNRGTRYSDPTQWTAFLGLHDQSQRSAPGVQERRLKRIISHPFFNDDTLDYDIALLELEKPAEYSSMVRPISLPDASHVFPAGKAIWVTGWGHTQYGGTGALILQKGEIRVINQTTCENLLPQLITPRMMCVGFLSGGVDSCGGDSGGPLSSVEADGRIFQAGVVSWGDGCAQRNKPGVYTRLPLFRDWIKENTGV | 11.9 nM
13 | MTSP-1 Q38G/H40R/I41H/D60bN/F97D/F99L/C122S/Q175L/Q192G (enzyme) VVGGTDADEGEWPWQVSLHALGGGRHCGASLISPNWLVSAAHCYIDNRGFRYSDPTQWTAFLGLHDQSQRSAPGVQERRLKRIISHPFFNDDTLDYDIALLELEKPAEYSSMVRPISLPDASHVFPAGKAIWVTGWGHTQYGGTGALILQKGEIRVINQTTCENLLPQLITPRMMCVGFLSGGVDSCGGDSGGPLSSVEADGRIFQAGVVSWGDGCAQRNKPGVYTRLPLFRDWIKENTGV | 0.867 nM
14 | MTSP-1 Q38E/H40R/I41H/D60bN/F60eT/F97D/F99L/C122S/Q175L/Q192G (enzyme) VVGGTDADEGEWPWQVSLHALGEGRHCGASLISPNWLVSAAHCYIDNRGTRYSDPTQWTAFLGLHDQSQRSAPGVQERRLKRIISHPFFNDDTLDYDIALLELEKPAEYSSMVRPISLPDASHVFPAGKAIWVTGWGHTQYGGTGALILQKGEIRVINQTTCENLLPQLITPRMMCVGFLSGGVDSCGGDSGGPLSSVEADGRIFQAGVVSWGDGCAQRNKPGVYTRLPLFRDWIKENTGV | 9.42 nM

Other lines, results leading:

Row | EC50 of hC3 cleavage | Binder
15 | 35.2 nM | MTSP-1 Q38R/I41S/D60bH/F60eV/F97T/ins97aE/T98G/F99L/C122S/Q175L/Q192E (enzyme) VVGGTDADEGEWPWQVSLHALGRGHSCGASLISPNWLVSAAHCYIDHRGVRYSDPTQWTAFLGLHDQSQRSAPGVQERRLKRIISHPFFNDTEGLDYDIALLELEKPAEYSSMVRPISLPDASHVFPAGKAIWVTGWGHTQYGGTGALILQKGEIRVINQTTCENLLPQLITPRMMCVGFLSGGVDSCEGDSGGPLSSVEADGRIFQAGVVSWGDGCAQRNKPGVYTRLPLFRDWIKENTGV
16 | 22.5 nM | MTSP-1 Q38R/I41S/D60bH/F60eV/ins97aE/F97T/T98G/F99L/C122S/G151N/Q175L/Q192E (enzyme) VVGGTDADEGEWPWQVSLHALGRGHSCGASLISPNWLVSAAHCYIDHRGVRYSDPTQWTAFLGLHDQSQRSAPGVQERRLKRIISHPFFNDTEGLDYDIALLELEKPAEYSSMVRPISLPDASHVFPAGKAIWVTGWGHTQYGGTNALILQKGEIRVINQTTCENLLPQLITPRMMCVGFLSGGVDSCEGDSGGPLSSVEADGRIFQAGVVSWGDGCAQRNKPGVYTRLPLFRDWIKENTGV
17 | 38.5 nM | MTSP-1 ins97aV/F97D/T98P/F99L/C122S/G151N/Q175L/Q192G (enzyme) VVGGTDADEGEWPWQVSLHALGQGHICGASLISPNWLVSAAHCYIDDRGFRYSDPTQWTAFLGLHDQSQRSAPGVQERRLKRIISHPFFNDDVPLDYDIALLELEKPAEYSSMVRPISLPDASHVFPAGKAIWVTGWGHTQYGGTNALILQKGEIRVINQTTCENLLPQLITPRMMCVGFLSGGVDSCGGDSGGPLSSVEADGRIFQAGVVSWGDGCAQRNKPGVYTRLPLFRDWIKENTGV
18 | 63.3 nM | MTSP-1 Q38R/I41E/ins97aE/F97T/T98G/F99L/C122S/Q175L/Q192T (enzyme) VVGGTDADEGEWPWQVSLHALGRGHECGASLISPNWLVSAAHCYIDDRGFRYSDPTQWTAFLGLHDQSQRSAPGVQERRLKRIISHPFFNDTEGLDYDIALLELEKPAEYSSMVRPISLPDASHVFPAGKAIWVTGWGHTQYGGTGALILQKGEIRVINQTTCENLLPQLITPRMMCVGFLSGGVDSCTGDSGGPLSSVEADGRIFQAGVVSWGDGCAQRNKPGVYTRLPLFRDWIKENTGV
19 | 27.3 nM | MTSP-1 Q38R/I41S/D60bH/F60eI/ins97aE/F97T/T98G/F99L/C122S/Q175L/Q192E (enzyme) VVGGTDADEGEWPWQVSLHALGRGHSCGASLISPNWLVSAAHCYIDHRGIRYSDPTQWTAFLGLHDQSQRSAPGVQERRLKRIISHPFFNDTEGLDYDIALLELEKPAEYSSMVRPISLPDASHVFPAGKAIWVTGWGHTQYGGTGALILQKGEIRVINQTTCENLLPQLITPRMMCVGFLSGGVDSCEGDSGGPLSSVEADGRIFQAGVVSWGDGCAQRNKPGVYTRLPLFRDWIKENTGV
20 | 2.37 nM | MTSP-1 Q38H/I41A/D60bV/F60eR/Y60gW/ins97aE/F97T/T98G/F99L/C122S/Q175L/Q192D (enzyme) VVGGTDADEGEWPWQVSLHALGHGHACGASLISPNWLVSAAHCYIDVRGRRWSDPTQWTAFLGLHDQSQRSAPGVQERRLKRIISHPFFNDTEGLDYDIALLELEKPAEYSSMVRPISLPDASHVFPAGKAIWVTGWGHTQYGGTGALILQKGEIRVINQTTCENLLPQLITPRMMCVGFLSGGVDSCDGDSGGPLSSVEADGRIFQAGVVSWGDGCAQRNKPGVYTRLPLFRDWIKENTGV
21 | 7.46 nM | MTSP-1 Q38H/I41S/D60bA/F60eV/Y60gF/F97T/ins97aE/T98G/F99L/C122S/Q175L/Q192T (enzyme) VVGGTDADEGEWPWQVSLHALGHGHSCGASLISPNWLVSAAHCYIDARGVRFSDPTQWTAFLGLHDQSQRSAPGVQERRLKRIISHPFFNDTEGLDYDIALLELEKPAEYSSMVRPISLPDASHVFPAGKAIWVTGWGHTQYGGTGALILQKGEIRVINQTTCENLLPQLITPRMMCVGFLSGGVDSCTGDSGGPLSSVEADGRIFQAGVVSWGDGCAQRNKPGVYTRLPLFRDWIKENTGV
